{
  "source": "patent US20080261903",
  "key": {"MKK4, P45985": {"target": "T1, MKK4, P45985", "T1 chain": "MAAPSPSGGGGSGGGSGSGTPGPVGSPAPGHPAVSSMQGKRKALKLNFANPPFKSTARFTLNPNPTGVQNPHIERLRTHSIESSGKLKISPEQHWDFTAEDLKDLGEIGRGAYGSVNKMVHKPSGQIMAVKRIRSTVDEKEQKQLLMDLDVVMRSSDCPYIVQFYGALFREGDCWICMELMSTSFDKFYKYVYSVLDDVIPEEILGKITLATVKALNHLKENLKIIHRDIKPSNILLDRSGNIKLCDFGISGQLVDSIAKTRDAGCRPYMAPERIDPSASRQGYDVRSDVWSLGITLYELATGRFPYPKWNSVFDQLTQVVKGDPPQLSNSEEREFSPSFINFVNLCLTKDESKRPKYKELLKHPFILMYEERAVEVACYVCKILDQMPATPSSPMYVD"}, "MKK6, P52564": {"target": "T2, MKK6, P52564", "T2 chain": "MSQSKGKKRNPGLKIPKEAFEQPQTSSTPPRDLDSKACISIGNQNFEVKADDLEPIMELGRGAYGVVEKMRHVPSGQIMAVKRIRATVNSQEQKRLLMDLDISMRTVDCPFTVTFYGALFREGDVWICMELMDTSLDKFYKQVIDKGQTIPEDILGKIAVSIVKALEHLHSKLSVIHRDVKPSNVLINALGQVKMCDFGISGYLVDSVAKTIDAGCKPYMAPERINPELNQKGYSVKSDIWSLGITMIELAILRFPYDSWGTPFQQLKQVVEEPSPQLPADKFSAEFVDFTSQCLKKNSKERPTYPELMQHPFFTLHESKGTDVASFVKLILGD"}, "MEK2, P36507": {"target": "T3, MEK2, P36507", "T3 chain": "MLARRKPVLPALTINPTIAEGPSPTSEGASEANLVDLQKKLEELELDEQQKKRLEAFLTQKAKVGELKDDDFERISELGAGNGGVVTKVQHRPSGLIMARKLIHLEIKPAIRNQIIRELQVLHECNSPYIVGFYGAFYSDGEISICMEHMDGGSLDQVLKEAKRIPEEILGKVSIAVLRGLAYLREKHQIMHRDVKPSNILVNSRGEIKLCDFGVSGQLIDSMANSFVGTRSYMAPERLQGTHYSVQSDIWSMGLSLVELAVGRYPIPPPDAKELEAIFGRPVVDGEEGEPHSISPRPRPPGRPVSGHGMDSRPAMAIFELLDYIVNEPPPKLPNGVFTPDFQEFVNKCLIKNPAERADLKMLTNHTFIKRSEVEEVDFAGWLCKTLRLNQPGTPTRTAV"}},
  "data": [
    {"protein": "FLAG-tagged RC Kinase polypeptide (human RC Kinase variant 1, SEQ ID NO: 7, with a FLAG epitope at its amino terminal) (protein) SKKQQLLDILMSSMPKPERHAESLLDICHDTNSSPTDLMTVTKNQNIILQSISRSEEFDQDGDCSHSTLVNEEEDPSGGRQDWQPRTEEFSTSHMKYSGRSIKFLLPPLSLLPTRSGVLTIPQNHKFPKEKERNIPSLTSFVPKLSVSVRQSDELSPSNEPPGALVKSLMDPTLRSSDGFIWSRNMCSFPKTNHHRQCLEKEENWKSKEIEECNKIEITHFEKGQSLVSFENLKEGNIPAVREEDIDCHGSKTRKPEEENSQYLSSRKNESSVAKNYEQDPEIVCTIPSKFQETQHSEITPSQDEEMRNNKAASKRVSLHKNEAMEPNNILEECTVLKSLSSVVFDDPIDKLPEGCSSMETNIKISIAERAKPEMSRMVPLIHITFPVDGSPKEPVIAKPSLQTRKGTIHNNHSVNIPVHQENDKHKMNSHRSKLDSKTKTSKKTPQNFVISTEGPIKPTMHKTSIKTQIFPALGLVDPRPWQLPRFQKKMPQIAKKQSTHRTQKPKKQSFPCICKNPGTQKSCVPLSVQPTEPRLNYLDLKYSDMFKEINSTANGPGIYEMFGTPVYCHVRETERDENTYYREICSAPSGRRITNKCRSSHSERKSNIRTRLSQKKTHMKCPKTSFGIKQEHKVLISKEKSSKAVHSNLHDIENGDGISEPDWQIKSSGNEFLSSKDEIHPMNLAQTPEQSMKQNEFPPVSDLSIVEEVSMEESTGDRDISNNQILTTSLRDLQELEELHHQIPFIPSEDSWAVPSEKNSNKYVQQEKQNTASLSKVNASRILTNDLEFDSVSDHSKTLTNFSFQAKQESASSQTYQYWVHYLDHDSLANKSITYQMFGKTLSGTNSISQEIMDSVNNEELTDELLGCLAAELLALDEKDNNSCQKMANETDPENLNLVLRWRGSTPKEMGRETTKVKIQRHSSGLRIYDREEKFLISNEKKIFSENSLKSEEPILWTKGEILGKGAYGTVYCGLTSQGQLIAVKQVALDTSNKLAAEKEYRKLQEEVDLLKALKHVNIVAYLGTCLQENTVSIFMEFVPGGSISSIINRFGPLPEMVFCKYTKQILQGVAYLHENCVVHRDIKGNNVMLMPTGIIKLIDFGCARRLAWAGLNGTHSDMLKSMHGTPYWMAPEVINESGYGRKSDIWSIGCTVFEMATGKPPLASMDRMAAMFYIGAHRGLMPPLPDHFSENAADFVRMCLTRDQHERPSALQLLKHSFLERSH", "values": [
      {"measurement": "RC Kinase activity (in vitro kinase assay with labelled ATP, SDS-PAGE, autoradiography)", "value": "it has the ability to phosphorylate other RC Kinase polypeptides"},
      {"measurement": "phosphorylating activity (in vitro kinase assay, autoradiography after SDS-PAGE)", "value": "RC Kinase was able to phosphorylate itself"},
      {"measurement": "RC Kinase activity (in vitro kinase assay with labelled ATP, SDS-PAGE, autoradiography)", "setting": "MKK4, P45985", "value": "it has the ability to phosphorylate other RC Kinase polypeptides, MKK4, and MKK6"},
      {"measurement": "phosphorylating activity (in vitro kinase assay, autoradiography after SDS-PAGE)", "setting": "MKK4, P45985", "value": "RC Kinase was able to phosphorylate itself and MKK4"},
      {"measurement": "RC Kinase activity (in vitro kinase assay with labelled ATP, SDS-PAGE, autoradiography)", "setting": "MKK6, P52564", "value": "it has the ability to phosphorylate other RC Kinase polypeptides, MKK4, and MKK6"},
      {"measurement": "phosphorylating activity (in vitro kinase assay, autoradiography after SDS-PAGE)", "setting": "MKK6, P52564", "value": "showed only minor activity against MKK6"},
      {"measurement": "phosphorylating activity (in vitro kinase assay, autoradiography after SDS-PAGE)", "setting": "MEK2, P36507", "value": "no detectable activity against MEK2"}
    ]}
  ]
}
